Assay results taken from paper PMC10681739, “High-throughput data and modeling reveal insights into the mechanisms of cooperative DNA-binding by transcription factor proteins”.

Columns and labels:
ETS1 = molecular target: T1, ETS1 (Homo sapiens, UniProt P14921); experiment: gcPBM; 1 nM ETS1; details: tags: N-terminal GST (pDEST15), kept (PMC6008103); label: surface-attached array probe
T1 sequence: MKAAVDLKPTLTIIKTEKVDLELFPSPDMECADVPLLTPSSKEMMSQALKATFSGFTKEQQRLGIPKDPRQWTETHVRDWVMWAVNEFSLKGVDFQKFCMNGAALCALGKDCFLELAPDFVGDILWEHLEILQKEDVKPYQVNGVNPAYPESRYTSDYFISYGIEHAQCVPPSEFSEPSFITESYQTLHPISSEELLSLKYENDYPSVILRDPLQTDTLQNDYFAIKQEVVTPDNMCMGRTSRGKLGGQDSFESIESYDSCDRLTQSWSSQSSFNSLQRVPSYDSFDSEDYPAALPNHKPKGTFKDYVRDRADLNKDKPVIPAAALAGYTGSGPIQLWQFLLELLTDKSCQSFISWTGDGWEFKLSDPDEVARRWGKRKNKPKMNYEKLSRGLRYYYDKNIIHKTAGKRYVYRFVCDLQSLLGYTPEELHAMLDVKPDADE

RUNX1 = RUNX1 (Homo sapiens, UniProt Q01196); experiment: gcPBM; 2 nM RUNX1; details: tags: N-terminal GST (pDEST15), kept (PMC6008103); label: surface-attached array probe
Chain of RUNX1 (Q01196 whole entry): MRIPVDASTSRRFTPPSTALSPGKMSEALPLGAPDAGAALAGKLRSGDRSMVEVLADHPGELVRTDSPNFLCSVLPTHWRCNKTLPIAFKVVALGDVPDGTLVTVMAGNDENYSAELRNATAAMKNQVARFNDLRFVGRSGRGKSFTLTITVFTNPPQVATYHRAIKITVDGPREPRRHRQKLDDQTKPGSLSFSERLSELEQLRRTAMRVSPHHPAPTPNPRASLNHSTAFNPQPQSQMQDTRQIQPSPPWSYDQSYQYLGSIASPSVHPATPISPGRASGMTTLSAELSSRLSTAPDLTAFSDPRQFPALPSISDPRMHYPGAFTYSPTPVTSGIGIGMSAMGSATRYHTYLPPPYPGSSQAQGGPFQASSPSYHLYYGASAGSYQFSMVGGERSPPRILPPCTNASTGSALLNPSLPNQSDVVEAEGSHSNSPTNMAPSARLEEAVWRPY

B1: Table S2 B row 1543 (dsDNA)
DNA 1: AAACCAGAGAGGAAGTGGCACCTCATGGCCAGACTG
DNA 2: CAGTCTGGCCATGAGGTGCCACTTCCTCTCTGGTTT
binding signal (ETS1): 3160 PBM fluorescence, median of replicate spots

B2: Table S2 B row 813 (dsDNA)
DNA 1: TGATGTAGAATCCGCTCGGCTTCCGGCGAGGGTGGG
DNA 2: CCCACCCTCGCCGGAAGCCGAGCGGATTCTACATCA
binding signal (ETS1): 4160 PBM fluorescence, median of replicate spots

B3: Table S2 B row 3031 (dsDNA)
DNA 1: CCCGGGGGCAGGAAATGTCGCCTTACCCTCAGCCTT
DNA 2: AAGGCTGAGGGTAAGGCGACATTTCCTGCCCCCGGG
binding signal (ETS1): 4680 PBM fluorescence, median of replicate spots

B4: Table S2 B row 3902 (dsDNA)
DNA 1: TGGGGCCCGGAAGCGCTGGCGCCTTACGGCCAGAAG
DNA 2: CTTCTGGCCGTAAGGCGCCAGCGCTTCCGGGCCCCA
binding signal (ETS1): 3570 PBM fluorescence, median of replicate spots

B5: Table S3 B row 3808 (dsDNA)
DNA 1: GCCCTTCTTGCGGTTTTCATGGCAGGGTGTTAACAT
DNA 2: ATGTTAACACCCTGCCATGAAAACCGCAAGAAGGGC
binding signal (RUNX1): 60800 PBM fluorescence, median of replicate spots

B6: Table S2 B row 2874 (dsDNA)
DNA 1: TGAGCAAGTTCCTTCCTGTCTGTGCTCCAGGGTTTA
DNA 2: TAAACCCTGGAGCACAGACAGGAAGGAACTTGCTCA
binding signal (ETS1): 5140 PBM fluorescence, median of replicate spots

B7: Table S3 B row 2580 (dsDNA)
DNA 1: GTCGCTGCGGTTTTGGGGTTGGCATGCTGTCCTCTG
DNA 2: CAGAGGACAGCATGCCAACCCCAAAACCGCAGCGAC
binding signal (RUNX1): 58800 PBM fluorescence, median of replicate spots

B8: Table S2 B row 1396 (dsDNA)
DNA 1: GAGGAGGAAAGCGGAAGCGCTGCCCTCAGTGGTAGG
DNA 2: CCTACCACTGAGGGCAGCGCTTCCGCTTTCCTCCTC
binding signal (ETS1): 4360 PBM fluorescence, median of replicate spots

B9: Table S2 B row 1042 (dsDNA)
DNA 1: GGTCCGGATGTATAAAGCGCGGCCCCCTGGGGGGAG
DNA 2: CTCCCCCCAGGGGGCCGCGCTTTATACATCCGGACC
binding signal (ETS1): 2790 PBM fluorescence, median of replicate spots

B10: Table S2 B row 1859 (dsDNA)
DNA 1: GTGAACTTCCTCCCCCACTGCCTATTTTTACAGCAG
DNA 2: CTGCTGTAAAAATAGGCAGTGGGGGAGGAAGTTCAC
binding signal (ETS1): 4830 PBM fluorescence, median of replicate spots

B11: Table S2 B row 1731 (dsDNA)
DNA 1: GACTGGTTTCCTGGTTTTGATGTAGTTTAGAGAAAA
DNA 2: TTTTCTCTAAACTACATCAAAACCAGGAAACCAGTC
binding signal (ETS1): 3820 PBM fluorescence, median of replicate spots

B12: Table S2 B row 3837 (dsDNA)
DNA 1: CTGCTTCCGGCCCCGGGGTTCGCTACCCCAAAATCC
DNA 2: GGATTTTGGGGTAGCGAACCCCGGGGCCGGAAGCAG
binding signal (ETS1): 27500 PBM fluorescence, median of replicate spots

B13: Table S2 B row 1126 (dsDNA)
DNA 1: TCCAGCCCCACCGGAAGTGGATGTGATTAATCTAGT
DNA 2: ACTAGATTAATCACATCCACTTCCGGTGGGGCTGGA
binding signal (ETS1): 25900 PBM fluorescence, median of replicate spots

B14: Table S2 B row 2920 (dsDNA)
DNA 1: GGCGCTAGGCTTCCGGATCGCGCTGGGCGGAGTTCA
DNA 2: TGAACTCCGCCCAGCGCGATCCGGAAGCCTAGCGCC
binding signal (ETS1): 2860 PBM fluorescence, median of replicate spots

B15: Table S2 B row 306 (dsDNA)
DNA 1: GAGAAACAGGAAGAGGGGTGGTGCTTACGGAACACG
DNA 2: CGTGTTCCGTAAGCACCACCCCTCTTCCTGTTTCTC
binding signal (ETS1): 2960 PBM fluorescence, median of replicate spots

B16: Table S2 B row 799 (dsDNA)
DNA 1: ATGAACCACTTCCTGTGTGTTCCCAGAGAGGTCAGG
DNA 2: CCTGACCTCTCTGGGAACACACAGGAAGTGGTTCAT
binding signal (ETS1): 25100 PBM fluorescence, median of replicate spots

B17: Table S3 B row 3968 (dsDNA)
DNA 1: CCGAGTTGCGGTTTCTCCGTTAGTGCTTACGGGTTG
DNA 2: CAACCCGTAAGCACTAACGGAGAAACCGCAACTCGG
binding signal (RUNX1): 54300 PBM fluorescence, median of replicate spots

B18: Table S2 B row 3281 (dsDNA)
DNA 1: GACCTGACAACATCCTGGCGCAGTGAGTTGGCCCTG
DNA 2: CAGGGCCAACTCACTGCGCCAGGATGTTGTCAGGTC
binding signal (ETS1): 3720 PBM fluorescence, median of replicate spots

B19: Table S2 B row 575 (dsDNA)
DNA 1: GCAGTGCAGGAAGTGCTTTGTCTGGTACAATCCCAA
DNA 2: TTGGGATTGTACCAGACAAAGCACTTCCTGCACTGC
binding signal (ETS1): 4090 PBM fluorescence, median of replicate spots

B20: Table S2 B row 1163 (dsDNA)
DNA 1: ATCACTTGTTTCCGCCAGCAAATCACAGGTCCCCAG
DNA 2: CTGGGGACCTGTGATTTGCTGGCGGAAACAAGTGAT
binding signal (ETS1): 3770 PBM fluorescence, median of replicate spots

B21: Table S2 B row 479 (dsDNA)
DNA 1: CACTTCCCCCAGCCTCTCTTTTTAATACGACAATAG
DNA 2: CTATTGTCGTATTAAAAAGAGAGGCTGGGGGAAGTG
binding signal (ETS1): 2920 PBM fluorescence, median of replicate spots

B22: Table S2 B row 1297 (dsDNA)
DNA 1: CCTAGAACCGGAAGAGAAAGGGGCTGGGGTGCAGCA
DNA 2: TGCTGCACCCCAGCCCCTTTCTCTTCCGGTTCTAGG
binding signal (ETS1): 4610 PBM fluorescence, median of replicate spots

B23: Table S3 B row 2036 (dsDNA)
DNA 1: GATTGCGGTTGGGACTTTCCCTAAGTCATTTGCTGT
DNA 2: ACAGCAAATGACTTAGGGAAAGTCCCAACCGCAATC
binding signal (RUNX1): 53200 PBM fluorescence, median of replicate spots

B24: Table S2 B row 573 (dsDNA)
DNA 1: GCCACCGTATTTCCGCGTTTTTCGAGGTAGGCGGGA
DNA 2: TCCCGCCTACCTCGAAAAACGCGGAAATACGGTGGC
binding signal (ETS1): 3870 PBM fluorescence, median of replicate spots

B25: Table S2 B row 3477 (dsDNA)
DNA 1: CTACCGGGAGTGCAGGTCGCGCTTCCGGCGGCGTCC
DNA 2: GGACGCCGCCGGAAGCGCGACCTGCACTCCCGGTAG
binding signal (ETS1): 3610 PBM fluorescence, median of replicate spots

B26: Table S2 B row 2699 (dsDNA)
DNA 1: CTCAGGAATGCGGAAGTGCTCTGTGAGCACCCACCA
DNA 2: TGGTGGGTGCTCACAGAGCACTTCCGCATTCCTGAG
binding signal (ETS1): 4940 PBM fluorescence, median of replicate spots

B27: Table S2 B row 3602 (dsDNA)
DNA 1: TGTCGGGCGGATGTGTACCGGCGTTAATATAGTAAG
DNA 2: CTTACTATATTAACGCCGGTACACATCCGCCCGACA
binding signal (ETS1): 2800 PBM fluorescence, median of replicate spots

B28: Table S2 B row 4083 (dsDNA)
DNA 1: GCCCCAGCGTTTCCTCTTACCCAAAATGCCCCGCCC
DNA 2: GGGCGGGGCATTTTGGGTAAGAGGAAACGCTGGGGC
binding signal (ETS1): 3440 PBM fluorescence, median of replicate spots

B29: Table S2 B row 540 (dsDNA)
DNA 1: AACAAACCGGATGGGGTTGCCACCTGCAATCTTGTC
DNA 2: GACAAGATTGCAGGTGGCAACCCCATCCGGTTTGTT
binding signal (ETS1): 3220 PBM fluorescence, median of replicate spots

B30: Table S2 B row 1606 (dsDNA)
DNA 1: CCGCTTCCTTAGAGGTTAAGTGGTGGAGGTTCAGTT
DNA 2: AACTGAACCTCCACCACTTAACCTCTAAGGAAGCGG
binding signal (ETS1): 3060 PBM fluorescence, median of replicate spots

B31: Table S2 B row 159 (dsDNA)
DNA 1: GTAAAAGAGGAAGTAACACCTCCTTGACGTTGAGAC
DNA 2: GTCTCAACGTCAAGGAGGTGTTACTTCCTCTTTTAC
binding signal (ETS1): 2720 PBM fluorescence, median of replicate spots

B32: Table S3 B row 3447 (dsDNA)
DNA 1: TGATTGCGGTTTCGGTCGCTCTCCCGTGTTTGCCGG
DNA 2: CCGGCAAACACGGGAGAGCGACCGAAACCGCAATCA
binding signal (RUNX1): 50800 PBM fluorescence, median of replicate spots

B33: Table S2 B row 544 (dsDNA)
DNA 1: GCTCCCGGATGTTCTGGGGATCAGCGCCCGCCTGGC
DNA 2: GCCAGGCGGGCGCTGATCCCCAGAACATCCGGGAGC
binding signal (ETS1): 3300 PBM fluorescence, median of replicate spots

B34: Table S2 B row 875 (dsDNA)
DNA 1: AGGCAGCACAGGAAGTTATAACTACATGTACACTTG
DNA 2: CAAGTGTACATGTAGTTATAACTTCCTGTGCTGCCT
binding signal (ETS1): 4250 PBM fluorescence, median of replicate spots

B35: Table S2 B row 145 (dsDNA)
DNA 1: CCACCATCTTTCCGGCTCCCTCGCGACCTCCACGAC
DNA 2: GTCGTGGAGGTCGCGAGGGAGCCGGAAAGATGGTGG
binding signal (ETS1): 3090 PBM fluorescence, median of replicate spots

B36: Table S2 B row 980 (dsDNA)
DNA 1: GCGGGCGGAAGTGCCGAGGTTGTACCTCGGCGCTGG
DNA 2: CCAGCGCCGAGGTACAACCTCGGCACTTCCGCCCGC
binding signal (ETS1): 4750 PBM fluorescence, median of replicate spots

B37: Table S2 B row 3084 (dsDNA)
DNA 1: TTTGCACACATCCTGGCCTCCGCCTGAGCACCTCCT
DNA 2: AGGAGGTGCTCAGGCGGAGGCCAGGATGTGTGCAAA
binding signal (ETS1): 3370 PBM fluorescence, median of replicate spots

B38: Table S2 B row 1459 (dsDNA)
DNA 1: CAGATCCGGCGTGGACGAAGCTCGGGAACTACAACA
DNA 2: TGTTGTAGTTCCCGAGCTTCGTCCACGCCGGATCTG
binding signal (ETS1): 5020 PBM fluorescence, median of replicate spots

B39: Table S2 B row 3968 (dsDNA)
DNA 1: GCCGCCGTTTCCTGATTGGTCGTGGGTGGCTACCTC
DNA 2: GAGGTAGCCACCCACGACCAATCAGGAAACGGCGGC
binding signal (ETS1): 4470 PBM fluorescence, median of replicate spots

B40: Table S3 B row 3820 (dsDNA)
DNA 1: TTTTGCGGTTTTTGATCTGGAAGCCACACAGCCTTA
DNA 2: TAAGGCTGTGTGGCTTCCAGATCAAAAACCGCAAAA
binding signal (RUNX1): 57800 PBM fluorescence, median of replicate spots

B41: Table S2 B row 1979 (dsDNA)
DNA 1: CTGAAACAGGAAGCTGAGGGTGCCGTTGGGGGAGGA
DNA 2: TCCTCCCCCAACGGCACCCTCAGCTTCCTGTTTCAG
binding signal (ETS1): 3960 PBM fluorescence, median of replicate spots
